Patent US20220119824A1

How the values were obtained:
[1] = target: recombinant murine CTLA-4-human IgG1 Fc chimera (R&D Systems) (mouse; human) (UniProt P09793); assay: competitive ELISA: mouse CD86 coated (competitor), murine CTLA-4-human IgG1 Fc chimera at 10 ng/ml mixed with scFv supernatant, anti-human IgG1-HRP
[2] = target: recombinant murine CTLA-4-human IgG1 Fc chimera (R&D Systems) (mouse; human) (UniProt P09793); assay: competitive ELISA: mouse CD80 coated (competitor), murine CTLA-4-human IgG1 Fc chimera at 10 ng/ml mixed with scFv supernatant, anti-human IgG1-HRP
[3] = target: IL-12 receptor on HEK-Blue™ IL-12 cells (InvivoGen) (UniProt P42701); assay: cell-based or functional assay
[4] = target: mouse TGF-β1 (R&D systems) (mouse) (UniProt P04202); assay: direct ELISA with mouse TGF-β1 on supernatant of transfected HEK293T cells
[5] = target: mouse TGF-β1 (R&D systems) (mouse) (UniProt P04202); assay: direct ELISA with mouse TGF-β1 on concentrated supernatant of transfected HEK293T cells

| STAT4-SEAP reporter in HEK-Blue IL-12 cells co-cultured with transfected HEK cells (Absorbance/% GFP) (Absorbance/% GFP) [3] | Substance | further results |
| --- | --- | --- |
| – | Anti-CTLA-4 scFv (ipilimumab scFv antibody fragment) | % CD86 Blockade Activity [1]: 32.5%; % CD80 Blockade Activity [2]: 7% |
| 0.237 | Human membrane bound IL-12p70 (ligand) | – |
| 0.117 | Mouse membrane bound IL-12p70 (ligand) | – |
| – | Soluble mouse TGFβ receptor II Fc (from UniProt Q62312 24-166) (Fc fusion) | Absorbance at 450 nm (absorbance at 450 nm) [4]: 1.51; Absorbance at 450 nm (absorbance at 450 nm) [5]: 1.52 |
| 0.11 | huIL-12p70 (soluble human IL-12p70) (from UniProt P29460 23-328; P29459 23-219) (ligand) | – |
| 0.11 | muIL-12p70 (soluble murine IL-12p70) (from UniProt P43432 23-335; P43431 23-215) (ligand) | – |
